Test results from publication PMC8038991, “R-catcher, a potent molecular tool to unveil the arginylome” (Cellular and Molecular Life Sciences: CMLS, 2021).
Entries after “also recorded” stand apart in the source; their conditions may differ.

B1: PRDX4: Peroxiredoxin-4 (protein, UniProt Q13162 38-271, looked up)
Peroxiredoxin-4: WETEERPRTREEECHFYAGGQVYPGEASRVSVADHSLHLSKAKISKPAPYWEGTAVIDGEFKELKLTDYRGKYLVFFFYPLDFTFVCPTEIIAFGDRLEEFRSINTEVVACSVDSQFTHLAWINTPRRQGGLGPIRIPLLSDLTHQISKDYGVYLEDSGHTLRGLFIIDDKGILRQITLNDLPVGRSVDETLRLVQAFQYTDKHGEVCPAGWKPGSETIIPDPAGKLKYFDKLN
B2: RGS4: ATE1 model substrate RGS4 (2nd oxidized Cys) (protein)
chain: RCKGLAGLPASCLRSAKDMKHRLGFLLQKSDSCEHNSSHNKKDKVVICQRVSQEEVKKWAESLENLISHECGLAAFKAFLKSEYSEENIDFWISCEEYKKIKSPSKLSPKAKKIYNEFISVQATKEVNLDSCTREETSRNMLEPTITCFDEAQKKIFNLMEKDSYRRFLKSRFYLDLVNPSSCGAEKQKGAKSSADCASLVPQCA
modifications: oxidized Cys as 2nd residue; left off: myc, end not stated, kept | His, end not stated, state not stated
B3: FBLN1: fibulin-1 (protein, UniProt P23142 30-703, looked up)
Fibulin-1: DVLLEACCADGHRMATHQKDCSLPYATESKECRMVQEQCCHSQLEELHCATGISLANEQDRCATPHGDNASLEATFVKRCCHCCLLGRAAQAQGQSCEYSLMVGYQCGQVFQACCVKSQETGDLDVGGLQETDKIIEVEEEQEDPYLNDRCRGGGPCKQQCRDTGDEVVCSCFVGYQLLSDGVSCEDVNECITGSHSCRLGESCINTVGSFRCQRDSSCGTGYELTEDNSCKDIDECESGIHNCLPDFICQNTLGSFRCRPKLQCKSGFIQDALGNCIDINECLSISAPCPIGHTCINTEGSYTCQKNVPNCGRGYHLNEEGTRCVDVDECAPPAEPCGKGHRCVNSPGSFRCECKTGYYFDGISRMCVDVNECQRYPGRLCGHKCENTLGSYLCSCSVGFRLSVDGRSCEDINECSSSPCSQECANVYGSYQCYCRRGYQLSDVDGVTCEDIDECALPTGGHICSYRCINIPGSFQCSCPSSGYRLAPNGRNCQDIDECVTGIHNCSINETCFNIQGGFRCLAFECPENYRRSAATLQQEKTDTVRCIKSCRPNDVTCVFDPVHTISHTVISLPTFREFTRPEEIIFLRAITPPHPASQANIIFDITEGNLRDSFDIIKRYMDGMTVGVVRQVRPIVGPFHAVLKLEMNYVVGGVVSHRNVVNVHIFVSEYWF
B4: LG3BP: lectin galactoside-binding soluble 3-binding protein (protein)
chain: VNDGDMRLADGGATNQGRVEIFYRGQWGTVCDNLWDLTDASVVCRALGFENATQALGRAAFGQGSGPIMLDEVQCTGTEASLADCKSLGWLKSNCRHERDAGVVCTNETRSTHTLDLSRELSEALGQIFDSQRGCDLSISVNVQGEDALGFCGHTVILTANLEAQALWKEPGSNVTMSVDAECVPMVRDLLRYFYSRRIDITLSSVKCFHKLASAYGARQLQGYCASLFAILLPQDPSFQMPLDLYAYAVATGDALLEKLCLQFLAWNFEALTQAEAWPSVPTDLLQLLLPRSDLAVPSELALLKAVDTWSWGERASHEEVEGLVEKIRFPMMLPEELFELQFNLSLYWSHEALFQKKTLQALEFHTVPFQLLARYKGLNLTEDTYKPRIYTSPTWSAFVTDSSWSARKSQLVYQSRRGPLVKYSSDYFQAPSDYRYYPYQSFQTPQHPSFLFQDKRVSWSLVYLPTIQSCWNYGFSCSSDELPVLGLTKSGGSDRTIAYENKALMLCEGLFVADVTDFEGWKAAIPSALDTNSSKSTSSFPCPAGHFNGFRTVIRPFYLTNSSGVD
modifications: left off: myc, end not stated, kept | His, end not stated, state not stated
B5: SERPINH1: serpin H1 (protein, UniProt P50454 19-418, looked up)
Serpin H1: AEVKKPAAAAAPGTAEKLSPKAATLAERSAGLAFSLYQAMAKDQAVENILVSPVVVASSLGLVSLGGKATTASQAKAVLSAEQLRDEEVHAGLGELLRSLSNSTARNVTWKLGSRLYGPSSVSFADDFVRSSKQHYNCEHSKINFRDKRSALQSINEWAAQTTDGKLPEVTKDVERTDGALLVNAMFFKPHWDEKFHHKMVDNRGFMVTRSYTVGVMMMHRTGLYNYYDDEKEKLQIVEMPLAHKLSSLIILMPHHVEPLERLEKLLTKEQLKIWMGKMQKKAVAISLPKGVVEVTHDLQKHLAGLGLTEAIDKNKADLSRMSGKKDLYLASVFHATAFELDTDGNPFDQDIYGREELRSPKLFYADHPFIFLVRDTQSGSLLFIGRLVRPKGDKMRDEL

What was measured:
R-catcher [1] = experiment: R-catcher pulldown of P1' site Gly mutants; assay type: binding, human; conditions: E20 SERPINH1, E30 (printed) PRDX4, D23 CLUS, D30 FBLN1 to Gly, Fig. 6e
Experimental: (§1) For small-scale R-catcher pull-down assays, 300 µg of purified R-catcher was conjugated with 120 µl of Strep-Tactin sepharose resin by incubating overnight at 4 °C. To test R-catcher’s ability to capture known arginylated proteins, such as R-BiP, R-PDI, R-nsP4 and R-RGS4, plasmids encoding Ub-X-(BiP, PDI and nsP4) or MX-RGS4 (X = Arg or Val) were transiently transfected into HEK293 cells. After 24 h, cells were treated with 10 µM MG132 and 100 nM thapsigargin for another 24 h. Cells were harvested and lysed in hypotonic buffer and 300 µg total protein was incubate with 25 µl R-catcher-sepharose resin in binding buffer (20 mM HEPES pH 7.9, 0.05% Tween 20, 10% glycerol, 0.2 M KCl, protease inhibitor and phosphatase inhibitor) for 3 h with gentle rotation at 4 °C. After three washes with binding buffer, bound proteins were dissociated with 2 × SDS sample buffer and boiling at 100 °C and subjected to immunoblotting using anti-myc or flag antibodies.
(§2) Plasmids encoding the proteins were transiently transfected to HeLa cells for 24 h and stimulated with 5 µM MG132 plus 100 nM TG for another 24 h. Cell lysates were incubated with R-catcher immobilized on tactin beads for 3 h. After wash, bound proteins were eluted with 2 × SDS sample buffer followed by boiling at 100 °C for 10 min and visualized by western blot analysis. b R-catcher pulldown assays to validate ATE1-dependent arginylation of […]1, PRDX4, FBLN1 and CLUS. […] Cell lysates were subjected to R-catcher pulldown, and bound proteins were detected by western blot analysis. c R-catcher pull-down assays to evaluate if the arginylation of FBNL1, SERPINH1, CLUS and PRDX4 is induced in response to MG132 plus thapsigargin. d X-peptide pulldown assays to confirm no interaction of R-catcher with Nt-Ala19 of SERPINH1 peptides and Nt-Trp38 of PRDX4 peptides. […] Bound GST-ZZ (N132D) was detected by immunoblotting. e Identification of arginylated sites employing mutational analysis. […]

R-catcher [2] = experiment: R-catcher pulldown of putative arginylated ER proteins, HeLa; assay type: binding, human; conditions: 5 µM MG132 plus 100 nM TG, RA competition, Fig. 6a
Experimental: as §1
Plasmids encoding the proteins were transiently transfected to HeLa cells for 24 h and stimulated with 5 µM MG132 plus 100 nM TG for another 24 h. Cell lysates were incubated with R-catcher immobilized on tactin beads for 3 h. After wash, bound proteins were eluted with 2 × SDS sample buffer followed by boiling at 100 °C for 10 min and visualized by western blot analysis. b R-catcher pulldown assays to validate ATE1-dependent arginylation of […]1, PRDX4, FBLN1 and CLUS. Plasmids encoding […]1, PRDX4, FBLN1 and CLUS were transiently transfected into + / + and ATE1^−/− MEFs for 24 h and stimulated with 5 µM MG132 plus 100 nM TG for another 9 h. Cell lysates were subjected to R-catcher pulldown, and bound proteins were detected by western blot analysis. c R-catcher pull-down assays to evaluate if the arginylation of FBNL1, SERPINH1, CLUS and PRDX4 is induced in response to MG132 plus thapsigargin. d X-peptide pulldown assays to confirm no interaction of R-catcher with Nt-Ala19 of SERPINH1 peptides and Nt-Trp38 of PRDX4 peptides. X-peptides where X is A19 (SignalP predicted P1’ site), E20 (next possible P1’ site predicted by PrediSi) or R19 (Arginylated form of Glu) for SERPINH1 and W38 (SignalP predicted P1’ site), E39 (next possible P1’ site predicted by PrediSi) or R38 (Arginylated form) for PRDX4. Biotinylated X-peptides immobilized on streptavidin agarose beads were incubated with affinity-purified GST-ZZ ([…]). Bound GST-ZZ (N132D) was detected by immunoblotting. e Identification of arginylated sites employing mutational analysis. Predicted P1’ sites of SERPINH1, PRDX4, CLUS and FBLN1 were substituted to Gly, and the inhibitory effect of the mutation on binding with R-catcher was examined by performing R-catcher pulldown assays

R-catcher [3] = experiment: R-catcher pulldown in +/+ and ATE1-/- MEFs; assay type: binding; conditions: +/+ versus ATE1-/- MEFs, MG132 plus TG, 9 h, Fig. 6b
Experimental: as §1, §2

[4] = Identification of arginylation sites, GelNrich and in-gel digestion LC-MS/MS
Excerpt: Upon separation of the immunoprecipitated protein by SDS-PAGE and staining with Coomassie Blue, the corresponding protein band was excised, half of which was subjected to GelNrich and the other half to conventional in-gel digestion GelNrich is an N-terminal peptide enrichment method based on in-gel digestion. The method includes in-gel protein level labeling of primary amines using d6-acetic anhydride and post-digestion negative selection of labeled N-terminal peptide(s) using N-hydroxysuccinimide activated agarose beads. Peptides recovered from GelNrich or in-gel digestion were dried in a vacuum evaporator and reconstituted in 0.1% formic acid. An aliquot was injected from a cooled (10 °C) auto-sampler into a reversed-phase EASY-Spray column (25 cm × 75 μm, Thermo Fisher Scientific) on an Eksigent nanoLC-ultra 1D plus system (Danaher Corporation) at a flow rate of 300 nL/min. Prior to use, the column was equilibrated with 96% buffer A (0.1% formic acid in water) and 4% buffer B (0.1% formic acid in acetonitrile). The peptides were eluted with a linear gradient from 4 to 35% buffer B over 60 min and 35–80% buffer B over 2 min followed by an organic wash and aqueous re-equilibration at a flow rate of 300 nL/min with a total run time of 96 min. The HPLC system was coupled to a Q-Exactive mass spectrometer (Thermo Fisher Scientific) operated in a data-dependent acquisition (DDA) mode. Survey full-scan MS spectra (m/z 400–1800) were acquired with a resolution of 70,000. The MS/MS spectra of the 12 most intense ions from the MS1 scan with charge states 1 ~ 5 were acquired with the following options: resolution, 17,500; automatic gain control (AGC) target, 5E4; isolation width, 2.0 m/z; normalized collision energy, 27%; dynamic exclusion duration, 60 s; and ion selection threshold, 4.2E2 counts. Source ionization parameters were as follow: spray voltage, 1.9 kV; capillary temperature, 275 °C; and s-lens level, 50.0. […]

R-catcher [5] = experiment: Small-scale R-catcher pulldown of known arginylated proteins; assay type: binding, human; conditions: HEK293 cells, R-catcher on tactin beads, immunoblot, Fig. 4d
Experimental: as §1

Molecule	effect of Gly substitution of P1' site on interaction with R-catcher (R-catcher [1])	binding with R-catcher, Nt-Arg dependence (R-catcher [2])	capture by R-catcher, ATE1 dependence (R-catcher [3])	arginylation detected by mass spectrometry [4]	pulldown by R-catcher, overexpressed substrates (R-catcher [5])
B1	significantly impaired their interaction with R-catcher; also recorded: abolished their binding with R-catcher	Nt-Arg-dependent binding with R-catcher	captured by R-catcher in an ATE1-dependent manner	not detected	–
B2	–	–	–	–	could pulldown
B3	significantly impaired their interaction with R-catcher; also recorded: abolished their binding with R-catcher	Nt-Arg-dependent binding with R-catcher	captured by R-catcher in an ATE1-dependent manner	the D30 residue	–
B4	–	no significant binding affinity for R-catcher	–	–	–
B5	significantly impaired their interaction with R-catcher; also recorded: abolished their binding with R-catcher	Nt-Arg-dependent binding with R-catcher	captured by R-catcher in an ATE1-dependent manner	not detected	–
